Source: PMC4420250

Molecular target: autoinducing peptide 1 (AIP1), active (cyclized), N-terminally biotinylated (Staphylococcus aureus)

Substance | IC50 of inhibition of agr::P3-yfp promoter activation in S. aureus AH1677 (agr-I) cultured with 50 nM exogenous AIP1 and increasing concentrations of lipoprotein [nM]
human LDL (apoB100) (natural protein) | 2.3
apoB48-containing lipoprotein particles (apoB48-LP) from serum of ApoE-/- mice (natural protein) | 3.5
